Measured values as given in paper PMC12685063.

Molecular target: Shigella flexneri LptDE complex (SfLptDE), His6 tag on LptE (Shigella flexneri)
Experiment: SEC

receptor binding protein (RBP) of the small siphophage Oekolampad (bas018) (natural protein)
percent RBP (Oeko) binding (complex formation after 48 h, band densitometry against LptE): 15 to 35%
